1 molecule from patent EP4814009A1 (Medpacto Inc., dated 2026) can be followed below.

This test deals with T1, biotinylated TGF-β1 (R&D Systems, Catalog #NFTG0) (UniProt P01137 279-390, biotinylated (sites not given)).
T1 construct: Detection reagent of the sandwich ELISA, 1:50 diluted in PBS
The test can be described thus: sandwich ELISA, simultaneous binding of EDB-FN-6x His (coated) and biotinylated TGF-β1. For orientation: In an ELISA, binding on a coated surface is turned into a signal by an enzyme label.

T1 sequence (P01137 279-390 limits assumed): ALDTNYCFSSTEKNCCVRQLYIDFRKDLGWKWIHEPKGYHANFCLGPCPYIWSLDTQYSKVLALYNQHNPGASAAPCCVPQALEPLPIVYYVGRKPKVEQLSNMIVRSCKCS

B1: Anti-EDB-FN scFv-TGFβ Trap (other)
chain: EVQLLESGGGLVQPGGSLRLSCAASGFTFSSFSMSWVRQAPGKGLEWVSSISGSSGTTYYADSVKGRFTISRDNSKNTLYLQMNSLRAEDTAVYYCAKPFPYFDYWGQGTLVTVSSGGGGSGGGGSGGGGSEIVLTQSPGTLSLSPGERATLSCRASQSVSSSFLAWYQQKPGQAPRLLIYYASSRATGIPDRFSGSGSGTDFTLTISRLEPEDFAVYYCQQTGRIPPTFGQGTKVEIKSSSSGSSSSGSSSSGIPPHVQKSVNNDMIVTDNNGAVKFPQLCKFCDVRFSTCDNQKSCMSNCSITSICEKPQEVCVAVWRKNDENITLETVCHDPKLPYHDFILEDAASPKCIMKEKKKPGETFFMCSCSSDECNDNIIFSEEYNTSNPD
notes: L19 scFv fused onto the TGFβ Trap without Fc; also called Anti-EDB-FN scFv-TGFβ Trap without Fc fusion
In the case of B1, the binding result is given as “binds”.
